Reference: publication PMC5416816
Where two headings read alike, the source gives them in different places.

Experiments:
TIA-1 RRM23S = molecular target: T1, TIA-1 RRM23S (UniProt P31483-2 94-272); test: fluorescence anisotropy
T1 sequence: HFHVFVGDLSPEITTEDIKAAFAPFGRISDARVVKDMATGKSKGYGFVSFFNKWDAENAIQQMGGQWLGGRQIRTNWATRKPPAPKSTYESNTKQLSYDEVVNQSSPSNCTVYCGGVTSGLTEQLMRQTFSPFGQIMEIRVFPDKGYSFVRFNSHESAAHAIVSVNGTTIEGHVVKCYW

TIA-1 RRM23K [1] = molecular target: T2, TIA-1 RRM23K (UniProt P31483-2 93-274); test: fluorescence anisotropy
T2 sequence: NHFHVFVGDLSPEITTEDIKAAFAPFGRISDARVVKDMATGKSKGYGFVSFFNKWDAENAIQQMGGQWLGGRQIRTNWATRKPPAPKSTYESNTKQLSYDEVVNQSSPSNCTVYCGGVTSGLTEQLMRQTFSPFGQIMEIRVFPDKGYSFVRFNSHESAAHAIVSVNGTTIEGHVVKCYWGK

TIA-1 RRM23L [2] = molecular target: T3, TIA-1 RRM23L (UniProt P31483-2 80-292); test: fluorescence anisotropy
T3 sequence: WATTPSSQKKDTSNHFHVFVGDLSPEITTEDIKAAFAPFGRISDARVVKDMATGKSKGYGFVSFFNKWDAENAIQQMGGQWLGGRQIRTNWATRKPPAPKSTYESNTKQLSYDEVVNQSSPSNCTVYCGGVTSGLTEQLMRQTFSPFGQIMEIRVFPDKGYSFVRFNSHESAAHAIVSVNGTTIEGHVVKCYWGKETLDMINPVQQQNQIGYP

TIA-1 RRM2L = molecular target: T4, TIA-1 RRM2L (UniProt P31483-2 80-188); test: fluorescence anisotropy
T4 sequence: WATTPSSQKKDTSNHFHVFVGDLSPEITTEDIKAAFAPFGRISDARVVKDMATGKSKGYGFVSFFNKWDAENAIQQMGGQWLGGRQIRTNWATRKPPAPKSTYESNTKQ

TIA-1 RRM23K [3] = molecular target: T2, TIA-1 RRM23K; test: ITC
TIA-1 RRM23L [4] = molecular target: T3, TIA-1 RRM23L; test: NMR
TIA-1 RRM23L [5] = molecular target: T3, TIA-1 RRM23L; test: NMR; remark: listed apart in the source
TIA-1 RRM2S = molecular target: T5, TIA-1 RRM2S (UniProt P31483-2 95-184); test: NMR
T5 sequence: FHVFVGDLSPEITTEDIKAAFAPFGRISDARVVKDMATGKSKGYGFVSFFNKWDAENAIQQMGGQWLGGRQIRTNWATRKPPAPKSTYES

## ACUCCUUUUU (ssRNA) [CU-rich RNA]
TIA-1 RRM23S
  Kd: 6600 ± 700 nM
TIA-1 RRM23K [1]
  Kd: 130 ± 10 nM
TIA-1 RRM23L [2]
  Kd: 130 ± 7 nM
TIA-1 RRM2L
  Kd: 9100 ± 2000 nM

## ACUCCUUUUU (ssRNA) [CU-rich RNA (unlabeled)]
TIA-1 RRM23K [3]
  Kd: 70 ± 3 nM

## TTTTTACTCC (ssDNA, 5' thiol C6 S-S) [5'thiol TC-rich DNA]
TIA-1 RRM23L [4]
  binding result: binds

## TTTTTACTCC (ssDNA, 5' thiol C6 coupled to PROXYL) [PROXYL TC-rich DNA]
TIA-1 RRM23L [5]
  binding result: binds

## TTTTT (ssDNA) [TTTTT DNA]
TIA-1 RRM2S
  binding result: binds

## ACTCCTTTTT (ssDNA) [CT-rich DNA]
TIA-1 RRM23K [1]
  Kd: 30 ± 3 nM

## UUUUUACUCC (ssRNA) [UC-rich RNA]
TIA-1 RRM23K [1]
  Kd: 5 ± 0.3 nM

## TTTTTACTCC (ssDNA) [TC-rich DNA]
TIA-1 RRM23K [1]
  Kd: 8 ± 1 nM

## UUUUUACUCC (ssRNA) [UC-rich RNA (unlabeled)]
TIA-1 RRM23K [3]
  Kd: 12 ± 2 nM
